# Measurements published in patent US20100203046A1 (Biogen, published 2010).
# B1: chCB6-huIgG1 S298N (antibody, name in EU numbering)
# heavy: not shown
# light: QIVLTQSPAIMSASPGEKVTMTCRASSSVSHMHWYQQKSGTSPKRWIYDTSKLASGVPARFSGSGSGTSYSLTISSVEAEDAATYYCQQWSSNPLTFGAGTKLELKRTVAAPSVFIFPPSDEQLKSGTASVVCLLNNFYPREAKVQWKVDNALQSGNSQESVTEQDSKDSTYSLSSTLTLSKADYEKHKVYACEVTHQGLSSPVTKSFNRGEC
# notes: copies: 2 + 2
# B2: chCB6-huIgG1 F241Q (antibody, name in EU numbering)
# heavy: not shown
# light: B1 light
# notes: copies: 2 + 2
# B3: chCB6-huIgG1 I332H (antibody, name in EU numbering)
# heavy: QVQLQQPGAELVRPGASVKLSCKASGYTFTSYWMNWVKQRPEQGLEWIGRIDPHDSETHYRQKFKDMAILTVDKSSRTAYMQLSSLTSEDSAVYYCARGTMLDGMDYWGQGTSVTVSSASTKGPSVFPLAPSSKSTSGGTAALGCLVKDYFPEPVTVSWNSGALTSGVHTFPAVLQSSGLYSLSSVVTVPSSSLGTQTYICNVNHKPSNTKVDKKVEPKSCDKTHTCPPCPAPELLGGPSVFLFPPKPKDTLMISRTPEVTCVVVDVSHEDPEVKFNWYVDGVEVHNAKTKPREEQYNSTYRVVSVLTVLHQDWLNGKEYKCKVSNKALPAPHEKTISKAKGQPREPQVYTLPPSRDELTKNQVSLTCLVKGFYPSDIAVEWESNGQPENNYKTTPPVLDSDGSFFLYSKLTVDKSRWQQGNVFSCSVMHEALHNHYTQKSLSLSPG
# light: B1 light
# notes: copies: 2 + 2
# B4: chCB6-huIgG1 S239D (antibody, name in EU numbering)
# heavy: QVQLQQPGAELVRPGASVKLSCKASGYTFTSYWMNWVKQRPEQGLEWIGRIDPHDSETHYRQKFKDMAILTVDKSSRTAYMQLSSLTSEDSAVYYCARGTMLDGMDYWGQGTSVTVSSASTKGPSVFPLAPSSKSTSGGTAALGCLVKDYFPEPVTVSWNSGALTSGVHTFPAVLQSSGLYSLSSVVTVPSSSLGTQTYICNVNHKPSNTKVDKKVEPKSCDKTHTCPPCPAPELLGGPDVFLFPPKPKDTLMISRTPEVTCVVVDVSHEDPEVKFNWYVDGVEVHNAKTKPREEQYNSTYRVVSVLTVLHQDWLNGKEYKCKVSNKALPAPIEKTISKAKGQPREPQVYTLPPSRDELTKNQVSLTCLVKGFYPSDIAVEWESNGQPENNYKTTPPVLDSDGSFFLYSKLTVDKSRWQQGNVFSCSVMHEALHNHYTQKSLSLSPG
# light: B1 light
# notes: copies: 2 + 2
# B5: chCB6-huIgG1 I332D (antibody, name in EU numbering)
# heavy: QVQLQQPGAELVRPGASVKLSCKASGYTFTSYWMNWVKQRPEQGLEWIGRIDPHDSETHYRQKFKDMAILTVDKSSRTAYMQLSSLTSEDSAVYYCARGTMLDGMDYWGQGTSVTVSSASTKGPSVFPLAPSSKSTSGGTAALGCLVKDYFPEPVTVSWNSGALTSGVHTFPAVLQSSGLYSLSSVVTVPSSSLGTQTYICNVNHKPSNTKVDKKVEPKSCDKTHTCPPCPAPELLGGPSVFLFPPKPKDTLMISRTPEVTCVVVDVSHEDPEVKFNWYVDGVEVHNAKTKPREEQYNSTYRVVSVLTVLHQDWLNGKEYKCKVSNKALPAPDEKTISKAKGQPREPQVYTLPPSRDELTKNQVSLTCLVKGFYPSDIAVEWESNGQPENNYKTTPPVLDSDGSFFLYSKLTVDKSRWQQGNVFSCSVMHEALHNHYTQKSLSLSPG
# light: B1 light
# notes: copies: 2 + 2
# B6: chCB6-huIgG1 S239E (antibody, name in EU numbering)
# heavy: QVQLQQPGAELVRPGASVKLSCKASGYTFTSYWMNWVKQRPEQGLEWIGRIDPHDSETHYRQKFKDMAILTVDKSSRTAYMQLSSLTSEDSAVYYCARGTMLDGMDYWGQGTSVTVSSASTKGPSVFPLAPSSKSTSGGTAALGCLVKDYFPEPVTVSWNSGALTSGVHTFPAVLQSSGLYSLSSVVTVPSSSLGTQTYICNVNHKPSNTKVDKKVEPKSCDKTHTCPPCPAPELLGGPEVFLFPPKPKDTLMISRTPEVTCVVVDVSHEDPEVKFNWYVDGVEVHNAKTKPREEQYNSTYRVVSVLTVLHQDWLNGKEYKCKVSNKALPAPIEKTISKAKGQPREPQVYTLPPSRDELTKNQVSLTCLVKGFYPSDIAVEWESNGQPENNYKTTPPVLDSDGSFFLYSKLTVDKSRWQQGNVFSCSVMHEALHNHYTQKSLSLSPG
# light: B1 light
# notes: copies: 2 + 2
# B7: chCB6-huIgG1 L328Q (antibody, name in EU numbering)
# heavy: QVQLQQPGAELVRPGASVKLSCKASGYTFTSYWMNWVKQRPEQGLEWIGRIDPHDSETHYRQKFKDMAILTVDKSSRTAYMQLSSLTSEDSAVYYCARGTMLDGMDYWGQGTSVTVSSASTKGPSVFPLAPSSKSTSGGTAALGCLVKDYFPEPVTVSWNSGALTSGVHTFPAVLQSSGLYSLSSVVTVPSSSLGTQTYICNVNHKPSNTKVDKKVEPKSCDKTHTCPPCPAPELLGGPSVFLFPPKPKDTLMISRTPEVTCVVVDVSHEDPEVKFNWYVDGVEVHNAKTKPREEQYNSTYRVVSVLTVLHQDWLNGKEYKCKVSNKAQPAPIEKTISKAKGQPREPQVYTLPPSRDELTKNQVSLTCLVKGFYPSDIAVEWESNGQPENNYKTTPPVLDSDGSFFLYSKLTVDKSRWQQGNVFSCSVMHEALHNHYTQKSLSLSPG
# light: B1 light
# notes: copies: 2 + 2
# B8: chCB6-huIgG1 I332Q (antibody, name in EU numbering)
# heavy: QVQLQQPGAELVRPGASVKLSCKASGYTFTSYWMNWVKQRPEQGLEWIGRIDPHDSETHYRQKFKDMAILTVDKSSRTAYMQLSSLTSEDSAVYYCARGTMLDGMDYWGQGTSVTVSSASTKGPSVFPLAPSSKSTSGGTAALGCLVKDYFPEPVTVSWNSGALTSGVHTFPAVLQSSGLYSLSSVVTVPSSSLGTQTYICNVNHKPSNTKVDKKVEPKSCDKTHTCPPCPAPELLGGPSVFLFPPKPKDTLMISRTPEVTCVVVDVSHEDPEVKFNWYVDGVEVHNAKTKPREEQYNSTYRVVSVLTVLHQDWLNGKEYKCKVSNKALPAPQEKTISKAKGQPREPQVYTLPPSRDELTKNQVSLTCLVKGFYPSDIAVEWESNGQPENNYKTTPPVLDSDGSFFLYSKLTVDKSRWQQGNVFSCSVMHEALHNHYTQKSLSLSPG
# light: B1 light
# notes: copies: 2 + 2
# B9: chCB6-huIgG1 S239D/A378Y (antibody, name in EU numbering)
# heavy: not shown
# light: B1 light
# notes: copies: 2 + 2
# B10: chCB6-huIgG1 S239D/A378W (antibody, name in EU numbering)
# heavy: not shown
# light: B1 light
# notes: copies: 2 + 2
# B11: chCB6-huIgG1 S239E/I332E (antibody, name in EU numbering)
# heavy: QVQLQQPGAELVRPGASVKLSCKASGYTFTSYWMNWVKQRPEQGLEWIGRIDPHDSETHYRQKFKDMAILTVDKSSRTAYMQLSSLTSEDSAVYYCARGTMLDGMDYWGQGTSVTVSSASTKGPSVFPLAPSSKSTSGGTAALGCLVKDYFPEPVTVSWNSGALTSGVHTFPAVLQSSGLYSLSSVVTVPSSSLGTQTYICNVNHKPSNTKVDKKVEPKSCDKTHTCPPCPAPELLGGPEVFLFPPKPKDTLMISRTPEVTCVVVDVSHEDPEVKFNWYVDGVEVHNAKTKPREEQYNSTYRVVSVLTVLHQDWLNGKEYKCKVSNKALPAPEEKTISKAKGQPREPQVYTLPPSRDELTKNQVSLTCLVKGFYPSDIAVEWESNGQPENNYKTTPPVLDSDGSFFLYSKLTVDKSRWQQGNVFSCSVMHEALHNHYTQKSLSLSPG
# light: B1 light
# notes: copies: 2 + 2
# B12: chCB6-huIgG1 S239E/I332D (antibody, name in EU numbering)
# heavy: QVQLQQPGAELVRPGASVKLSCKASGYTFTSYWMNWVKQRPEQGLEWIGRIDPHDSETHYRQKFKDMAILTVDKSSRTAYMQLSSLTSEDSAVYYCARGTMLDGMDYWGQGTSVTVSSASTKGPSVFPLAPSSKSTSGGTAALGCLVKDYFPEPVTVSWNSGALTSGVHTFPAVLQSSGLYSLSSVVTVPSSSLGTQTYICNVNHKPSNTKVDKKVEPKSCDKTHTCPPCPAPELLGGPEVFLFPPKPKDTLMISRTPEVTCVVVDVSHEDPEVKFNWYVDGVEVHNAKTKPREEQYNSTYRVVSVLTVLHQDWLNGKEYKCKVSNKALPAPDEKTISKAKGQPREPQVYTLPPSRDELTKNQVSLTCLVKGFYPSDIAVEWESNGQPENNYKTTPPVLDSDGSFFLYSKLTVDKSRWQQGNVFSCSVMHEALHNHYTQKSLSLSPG
# light: B1 light
# notes: copies: 2 + 2
# B13: chCB6-huIgG1 S239D/H435S (antibody, name in EU numbering)
# heavy: not shown
# light: B1 light
# notes: copies: 2 + 2
# B14: chCB6-huIgG1 S239D/H435G (antibody, name in EU numbering)
# heavy: not shown
# light: B1 light
# notes: copies: 2 + 2
# B15: chCB6-huIgG1 R301A (antibody, name in EU numbering)
# heavy: not shown
# light: B1 light
# notes: copies: 2 + 2
# B16: chCB6-huIgG1 R301S (antibody, name in EU numbering)
# heavy: not shown
# light: B1 light
# notes: copies: 2 + 2
# B17: chCB6-huIgG1 Y296T (antibody, name in EU numbering)
# heavy: not shown
# light: B1 light
# notes: copies: 2 + 2
# B18: chCB6-huIgG1 Y296Q (antibody, name in EU numbering)
# heavy: not shown
# light: B1 light
# notes: copies: 2 + 2
# B19: chCB6-huIgG1 E294N (antibody, name in EU numbering)
# heavy: not shown
# light: B1 light
# notes: copies: 2 + 2
# B20: chCB6-huIgG1 R301T (antibody, name in EU numbering)
# heavy: not shown
# light: B1 light
# notes: copies: 2 + 2
# B21: chCB6-huIgG1 R301K (antibody, name in EU numbering)
# heavy: not shown
# light: B1 light
# notes: copies: 2 + 2
# B22: chCB6-huIgG1 E294T (antibody, name in EU numbering)
# heavy: not shown
# light: B1 light
# notes: copies: 2 + 2
# B23: chCB6-huIgG1 R301N (antibody, name in EU numbering)
# heavy: not shown
# light: B1 light
# notes: copies: 2 + 2
# B24: chCB6-huIgG1 G236A (antibody, name in EU numbering)
# heavy: not shown
# light: B1 light
# notes: copies: 2 + 2
# B25: chCB6-huIgG1 A330H (antibody, name in EU numbering)
# heavy: not shown
# light: B1 light
# notes: copies: 2 + 2
# B26: chCB6-huIgG1 H268D (antibody, name in EU numbering)
# heavy: not shown
# light: B1 light
# notes: copies: 2 + 2
# B27: chCB6-huIgG1 L234Q (antibody, name in EU numbering)
# heavy: not shown
# light: B1 light
# notes: copies: 2 + 2
# B28: chCB6-huIgG1 S239P (antibody, name in EU numbering)
# heavy: not shown
# light: B1 light
# notes: copies: 2 + 2
# B29: chCB6-huIgG1 L328T (antibody, name in EU numbering)
# heavy: not shown
# light: B1 light
# notes: copies: 2 + 2
# B30: chCB6-huIgG1 S239H (antibody, name in EU numbering)
# heavy: not shown
# light: B1 light
# notes: copies: 2 + 2
# B31: chCB6-huIgG1 H268P (antibody, name in EU numbering)
# heavy: not shown
# light: B1 light
# notes: copies: 2 + 2
# Target: T1, human FcγRIII (CD16), CD16a (F158), on CD16-transfected Jurkat cells (human, UniProt P08637 17-254)
# T1 construct: whole, on cells
# T1 sequence (P08637 17-254): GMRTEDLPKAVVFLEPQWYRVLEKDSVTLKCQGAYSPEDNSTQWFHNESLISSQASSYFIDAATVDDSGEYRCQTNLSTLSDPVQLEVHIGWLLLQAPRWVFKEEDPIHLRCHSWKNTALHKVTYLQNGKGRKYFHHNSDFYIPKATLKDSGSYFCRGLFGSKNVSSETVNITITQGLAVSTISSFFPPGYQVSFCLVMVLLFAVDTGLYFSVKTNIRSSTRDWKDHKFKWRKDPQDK
# Experiment: summary of Table 3 assays
row,fold decrease in binding vs WT,Binder
1,> 10 fold,B1
2,> 10 fold,B2

# Target: T2, human FcγRI (CD64) on IFNγ-activated U937 cells (human, UniProt P12314 16-374)
# T2 construct: whole, on cells; also called FcγR1
# Experiment: CD64 bridging assay, purified
row,binding result,Binder
1,binds,B3
2,binds,B4
3,binds,B5
4,binds,B6
5,binds,B7
6,binds,B8

# Target: T1, human FcγRIII (CD16), CD16a (F158), on …
# Experiment: CD16 bridging assay, transient
row,fold increase in binding vs WT,Binder
1,4 fold,B9
2,4 fold,B10
3,3 fold,B11
4,3 fold,B12
5,3 fold,B13
6,3 fold,B14

# Target: T1, human FcγRIII (CD16), CD16a (F158), on …
# Experiment: CD16 bridging assay, transient
# Remark: another data set of the same source
fold decrease in binding vs WT,binding result,Binder
5 fold,,B15
,binds,B16
,no binding,B17
5 fold,,B18
8 fold,,B19
,binds,B20
5 fold,,B21
8 fold,,B22
5 fold,,B23

# Target: T3, GST-tagged FcγRIII, CD16a (V158) (UniProt P08637 17-208, limits assumed)
# T3 construct: the canonical entry carries F there; Captured by biotinylated anti-GST mAb on streptavidin donor beads; also called GST-FcγRIII; not shown: GST tag
# T3 sequence (P08637 17-208 F176V limits assumed): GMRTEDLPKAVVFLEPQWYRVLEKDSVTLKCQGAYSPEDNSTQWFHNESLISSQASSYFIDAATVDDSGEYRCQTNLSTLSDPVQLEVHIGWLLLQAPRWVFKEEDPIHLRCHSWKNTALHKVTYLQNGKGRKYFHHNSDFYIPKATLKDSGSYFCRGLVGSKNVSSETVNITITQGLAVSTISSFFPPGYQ
# Experiment: AlphaScreen competition vs huIgG1 beads, purified
# Description: The relative binding affinities to FcγRIII (CD16), of the variant antibodies, was determined using an AlphaScreen assay (Amplified Luminescent Proximity Homogeneous Assay, PerkinElmer, MA, USA). Laser excitation of a donor bead excites oxygen, which if in close proximity to an acceptor bead generates a cascade of chemiluminescent events, ultimately leading to fluorescence emission at 520-620 nm. […] The reaction was carried out for one hour in a 25 μl volume and plates were read in the Fusion Alpha reader (PerkinElmer).
row,fold increase in binding vs WT,Binder
1,9 fold,B4
2,4 fold,B5
3,8 fold,B6
4,10 fold,B11
5,7 fold,B12

# Target: T1, human FcγRIII (CD16), CD16a (F158), on …
# Experiment: CD16 bridging assay, transient
# Remark: another data set of the same source
fold increase in binding vs WT,fold decrease in binding vs WT,Binder
6 fold,,B4
15 fold,,B5
,13 fold,B1
4 fold,,B6
,3 fold,B7
,30 fold,B2
2 fold,,B8

# Target: T4, human C1q (Sigma C0660) (human, UniProt P02745 23-245; P02746 28-253; P02747 29-245)
# T4 construct: Bought protein; also called complement protein C1q
# T4 sequence (P02745 23-245 limits assumed, chain 1 of 3): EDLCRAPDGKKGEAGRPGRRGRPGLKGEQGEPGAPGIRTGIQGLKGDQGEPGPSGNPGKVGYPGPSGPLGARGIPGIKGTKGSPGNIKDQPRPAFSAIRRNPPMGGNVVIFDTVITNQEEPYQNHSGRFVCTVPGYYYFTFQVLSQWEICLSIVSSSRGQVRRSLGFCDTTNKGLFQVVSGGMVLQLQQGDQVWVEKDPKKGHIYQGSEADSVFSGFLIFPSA
# T4 sequence (P02746 28-253 limits assumed, chain 2 of 3): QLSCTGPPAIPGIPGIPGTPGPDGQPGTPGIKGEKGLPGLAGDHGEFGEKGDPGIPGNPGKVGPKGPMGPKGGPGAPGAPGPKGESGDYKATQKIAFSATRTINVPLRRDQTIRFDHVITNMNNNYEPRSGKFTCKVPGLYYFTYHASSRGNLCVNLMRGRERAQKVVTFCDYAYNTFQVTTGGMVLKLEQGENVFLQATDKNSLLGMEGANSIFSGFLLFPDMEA
# T4 sequence (P02747 29-245 limits assumed, chain 3 of 3): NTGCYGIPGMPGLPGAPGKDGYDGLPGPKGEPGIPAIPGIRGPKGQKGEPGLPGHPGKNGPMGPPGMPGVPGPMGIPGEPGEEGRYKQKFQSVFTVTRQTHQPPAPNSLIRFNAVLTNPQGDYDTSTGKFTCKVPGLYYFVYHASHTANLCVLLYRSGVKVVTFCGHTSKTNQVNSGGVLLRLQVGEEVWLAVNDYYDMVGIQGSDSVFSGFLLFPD
# Experiment: C1q ELISA on CD2, transient
# Description: (§1) The C1q binding assay was performed by coating 96 well Maxisorb ELISA plates (Nalge-Nunc Rochester, N.Y., USA) with 50 μl recombinant soluble human CD2 at 10 μg/ml overnight at 4° C. in PBS. The wells were aspirated and washed three times with wash buffer (PBS, 0.05% Tween 20) and blocked for >1 h with 200 μ/well of block/diluent buffer (0.1 M Na₂HPO₄, pH 7, 0.1 M NaCl, 0.05% Tween 20, 0.1% gelatin). The antibody to be tested was diluted in block/diluent buffer starting at 15 μg/ml with 3-fold dilutions. 50 μl were added per well, and the plates incubated for 2 h at room temperature. After aspirating and washing as above, 50 μl/well of 2 μg/ml of Sigma human C1q (C0660) diluted in block/diluent buffer was added and incubated for 1.5 h at room temperature. After aspirating and washing as above, 50 μl/well of chicken anti human C1q (Cedarlane laboratories CL2101AP), diluted 2,000-fold in block/diluent buffer, was added. After incubation for 1.5 h at room temperature, the wells were aspirated and washed as above. 50 μl/well of donkey F(ab′)₂ anti chicken IgY HRP conjugate (Jackson ImmunoResearch 703-036-155) diluted to 1:5,000 in block/diluent was then added, and the wells incubated for 1 h at room temperature. After aspirating and washing as above, 100 μl TMB substrate (420 μM TMB, 0.004% H₂O₂ in 0.1 M sodium acetate/citric acid buffer, pH 4.9) was added and incubated for 2 min before the reaction was stopped with 100 μl 2 N sulfuric acid. The absorbance was read at 450 nm with a Softmax P instrument, and Softmax software was used to determine the relative binding affinity (C value) with a 4-parameter fit.
binding result,fold decrease in binding vs WT,Binder
binds,,B15
binds,,B16
,3 fold,B17
,4 fold,B18
,7 fold,B19
binds,,B20
binds,,B21
,3 fold,B23

# Target: T1, human FcγRIII (CD16), CD16a (F158), on …
# Experiment: CD16 bridging assay, purified
row,fold increase in binding vs WT,Binder
1,6 fold,B11
2,8 fold,B12
3,6 fold,B13

# Target: T4, human C1q (Sigma C0660)
# Experiment: C1q ELISA on CD2, purified
# Description: as §1
binding result,fold decrease in binding vs WT,Binder
binds,,B3
,2 fold,B4
binds,,B5
,2 fold,B6
no binding,,B7
binds,,B11
binds,,B12
binds,,B8

# Target: T1, human FcγRIII (CD16), CD16a (F158), on …
# Experiment: CD16 bridging assay, transient
# Remark: another data set of the same source
fold decrease in binding vs WT,binding result,fold increase in binding vs WT,Binder
2 fold,,,B24
,binds,,B25
,,3 fold,B26
5 fold,,,B27
,no binding,,B28
3 fold,,,B29
,no binding,,B30
3 fold,,,B31

# Target: T1, human FcγRIII (CD16), CD16a (F158), on …
# Experiment: CD16 bridging assay, purified
# Remark: another data set of the same source
fold decrease in binding vs WT,fold increase in binding vs WT,Binder
2 fold,,B3
,6 fold,B4
,9 fold,B5
,3 fold,B6
2 fold,,B7
,2 fold,B8
